B1: zona pellucida glycoprotein ZP3: ZP3(32–178)N124D (protein)
parent chain: MGPCSRLFVCFLLWGSTELCSPQPFWDDETERFRPSKPPAVMVECQEAQLVVTVDKDLFGTGKLIRPADLTLGPDNCEPLASADTDGVVRFAVGLHECGNILQVTDNALVYSTFLLHNPRPAGNLSILRTNRAEVPIECHYPRQGNVSSWAIQPTWVPFRTTVFSEEKLVFSLRLMEENWSAEKMTPTFQLGDRAHLQAQVHTGSHVPLRLFVDHCVASLTPDWSTSPYHTIVDFHGCLVDGLTDASSAFKAPRPRPEILQFTVDVFRFANDSRNMIYITCHLKVTPVDRVPDQLNKACSFSKSSNRWSPVEGPTDICRCCSKGRCGISGRSMRLSHREGRPVPRSRRHVTEEADVTVGPLIFLRKMNDRGVEGPTSSPPLVMLGLGLATVMTLTLAAIVLGLTGRLRAASHPVCPVSASQ
B2: zona pellucida glycoprotein ZP3: ZP3(32–178)N146D (protein)
parent chain: B1 parent chain
B3: zona pellucida glycoprotein ZP3: ZP3(32–178)N124,146D (protein)
parent chain: B1 parent chain

Experiment: competitive inhibition, sperm binding to ZP-coated wells
Conditions: glycan lost; control: ZP3(32–178)/ZP4

Row | Protein | other: inhibition of sperm-ZP binding
1 | B1 | no change
2 | B2 | decreases
3 | B3 | decreases
